PMC3658134
[ ]: non-standard residue; d: D form. Sec = N[C@@H](C[SeH])C(=O)O

Substrate: O=C1NC(=O)C(=O)C(=O)N1
Assay: Substrate specificity, NADPH consumption, wild-type TGR
Type: biochemical, Schistosoma mansoni
Conditions: pH 7.4; 25.0 °C

B1: wild-type TGR (SmTGR) (Schistosoma mansoni) (protein)
chain: MPPADGTSQWLRKTVDSAAVILFSKTTCPYCKKVKDVLAEAKIKHATIELDQLSNGSAIQKCLASFSKIETVPQMFVRGKFIGDSQTVLKYYSNDELAGIVNESKYDYDLIVIGGGSGGLAAGKEAAKYGAKTAVLDYVEPTPIGTTWGLGGTCVNVGCIPKKLMHQAGLLSHALEDAEHFGWSLDRSKISHNWSTMVEGVQSHIGSLNWGYKVALRDNQVTYLNAKGRLISPHEVQITDKNQKVSTITGNKIILATGERPKYPEIPGAVEYGITSDDLFSLPYFPGKTLVIGASYVALECAGFLASLGGDVTVMVRSILLRGFDQQMAEKVGDYMENHGVKFAKLCVPDEIKQLKVVDTENNKPGLLLVKGHYTDGKKFEEEFETVIFAVGREPQLSKVLCETVGVKLDKNGRVVCTDDEQTTVSNVYAIGDINAGKPQLTPVAIQAGRYLARRLFAGATELTDYSNVATTVFTPLEYGACGLSEEDAIEKYGDKDIEVYHSNFKPLEWTVAHREDNVCYMKLVCRKSDNMRVLGLHVLGPNAGEITQGYAVAIKMGATKADFDRTIGIHPTCSETFTTLHVTKKSGVSPIVSGC[Sec]G
modifications: not fully specified
B1 was tested, and the Km was 940 ± 90 µM and the kcat was 27.7 ± 0.8 s⁻¹.
